Measurements reported in publication PMC5861437.

Assays:
[1] = target: H-subunit of the restriction endonuclease CglI (H.CglI), wild type (Corynebacterium glutamicum); test: SEC + other: SAXS
[2] = target: H.CglI H290A (H/H motif mutant) (Corynebacterium glutamicum); test: SEC
[3] = target: H.CglI H282A (H/H motif mutant) (Corynebacterium glutamicum); test: SEC
[4] = target: H.CglI R379A (Motif V mutant) (Corynebacterium glutamicum); test: SEC
[5] = target: H.CglI R408A (Motif VI mutant) (Corynebacterium glutamicum); test: SEC
[6] = target: H.CglI H282A + H290A (H/H motif double mutant) (Corynebacterium glutamicum); test: SEC
[7] = target: H.CglI Q405A (Motif VI mutant) (Corynebacterium glutamicum); test: SEC
[8] = target: H.CglI ΔL (a deletion of the residues 165–172), Loop 163–172 mutant (Corynebacterium glutamicum); test: SEC
[9] = target: H.CglI L1 (V169A), Loop 163–172 mutant (Corynebacterium glutamicum); test: SEC

“H-subunit of the restriction endonuclease CglI (H.CglI), wild type (natural protein)” gave a stoichiometry N [1] of 2.
Substance “H.CglI H290A (H/H motif mutant) (natural protein)” has a stoichiometry N [2] of 2.
“H.CglI H282A (H/H motif mutant) (natural protein)” showed a stoichiometry N [3] of 2.
In the case of “H.CglI R379A (Motif V mutant) (natural protein)”, the stoichiometry N [4] is reported as 2.
Substance “H.CglI R408A (Motif VI mutant) (natural protein)” has a stoichiometry N [5] of 2.
“H.CglI H282A + H290A (H/H motif double mutant) (natural protein)” gave a stoichiometry N [6] of 2.
“H.CglI Q405A (Motif VI mutant) (natural protein)” was tested, and the stoichiometry N [7] was 2.
In the case of “H.CglI ΔL (a deletion of the residues 165–172), Loop 163–172 mutant (natural protein)”, the stoichiometry N [8] is reported as 2.
For “H.CglI L1 (V169A), Loop 163–172 mutant (natural protein)”, the stoichiometry N [9] was 2.
